Experimental data as given in publication doi:10.1101/2020.07.19.211243.
Values joined by “and” are separate entries in the source; they are usually repeats but may differ in a detail not shown here. Equal values may be shown once. Read-outs that look alike come from different tables or passages of the source.

Key:
Experiment in all cases: SDS-PAGE
[1] = target: Daphnia pulex (water flea) sarcolamban peptide (Daphnia pulex)
[2] = target: Daphnia pulex (water flea) sarcolamban peptide (Daphnia pulex); remark: listed apart in the source
[3] = target: Triops cancriformis (tadpole shrimp) sarcolamban peptide (Triops cancriformis)

Substance	stoichiometry N [1]	stoichiometry N [2]	stoichiometry N [3]
Daphnia pulex (water flea) sarcolamban peptide	2	3 and 4 and 5	–
Triops cancriformis (tadpole shrimp) sarcolamban peptide	–	–	2
